Measurements reported in paper PMC6224509 (Nature Communications, 2018).

B1: urelumab (fully human IgG4 mAb) (antibody, V domains shown)
VH: QVQLQQWGAGLLKPSETLSLTCAVYGGSFSGYYWSWIRQSPEKGLEWIGEINHGGYVTYNPSLESRVTISVDTSKNQFSLKLSSVTAADTAVYYCARDYGPGNYDWYFDLWGRGTLVTVSS
VL: EIVLTQSPATLSLSPGERATLSCRASQSVSSYLAWYQQKPGQAPRLLIYDASNRATGIPARFSGSGSGTDFTLTISSLEPEDFAVYYCQQRSNWPPALTFGGGTKVEIK
B2: urelumab Fab (Fab, V domains shown)
VH: B1 VH
VL: B1 VL
notes: urelumab heavy chain Fab region; urelumab kappa light chain (captured on an anti-human kappa surface); also called BMS-663513 (Fab); URE-Fab

Assays:
[1] = target: T1, human 4-1BB residues 24–186, wild type, His–Avi (human, UniProt Q07011); experiment: cell-based or functional assay
T1 sequence (Q07011 24-186): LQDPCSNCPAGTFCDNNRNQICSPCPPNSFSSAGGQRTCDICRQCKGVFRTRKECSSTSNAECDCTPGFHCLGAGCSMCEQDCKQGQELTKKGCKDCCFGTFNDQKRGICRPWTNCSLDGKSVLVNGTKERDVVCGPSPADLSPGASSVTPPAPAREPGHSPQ

[2] = target: T2, human 4-1BB residues 24–186 M101R, His–Avi (Homo sapiens, UniProt Q07011, M101R); experiment: SPR; binding kinetics and affinities, monovalent binding of utomilumab and urelumab to wild type and mutant h4-1BB (Supplementary Figure 8); who was immobilised is not given in the source; conditions: both partners purified
T2 construct: human 4-1BB (CD137, TNFRSF9), residues 24-186, M101R; source: HEK cells, transfected, secreted, purified (NiExcel, Superdex 200); not shown: His8, C-terminal, kept
T2 sequence (Q07011 24-186 M101R): as the sequence (Q07011 24-186) above, with M78R counted along it

[3] = target: T1, human 4-1BB residues 24–186, wild type, …; experiment: as above; conditions: both partners purified
[4] = target: T3, human 4-1BB residues 24–186 I132R, His–Avi (Homo sapiens, UniProt Q07011, I132R); experiment: as above; conditions: both partners purified
T3 construct: human 4-1BB (CD137, TNFRSF9), residues 24-186, I132R; source: HEK cells, transfected, secreted, purified (NiExcel, Superdex 200); not shown: His8, C-terminal, kept
T3 sequence (Q07011 24-186 I132R): as the sequence (Q07011 24-186) above, with I109R counted along it

Binder	NF-ĸB luciferase reporter in h4-1BB-expressing HEK293 cells, fold induction over unstimulated cells, cross-linked by Pfeiffer cells (FcγRIIB), max 250 nM [1] [fold]	NF-ĸB luciferase reporter in h4-1BB-expressing HEK293 cells, fold induction over unstimulated cells, no cross-linking, max 250 nM [1] [fold]	Kd [2] [nM]	Kd [3] [nM]	Kd [4] [nM]
B1	2.24	1.99	–	–	–
B2	–	–	16	22	18
